Results taken from the domain aggregation screens of Martell et al. (2025).

Test: soluble fraction after stress (log2 fold change); higher = more stays soluble; pooled small domains, quantitative proteomics
Conditions: stress: pH 4
Procedure, shortened: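 Custom libraries of small protein domains were pooled and exposed to pH 4. High-throughput quantitative proteomics then measured the log2 fold change in the amount of each domain still soluble, with higher values meaning more stayed soluble. This soluble-fraction fold change stands for aggregation propensity.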

“HMAYRLDVRNQTKGTYLVIQKKYWDKEKKQSRTKHHMSLGYVHDLQKLYSDPITHYKEVINQMNAEEKG” and “HMAYSEEDRRRVREELLTTALKLMSTQGIQHTTVEQVYRSVGISRSFFYAFFPTKEDLIVEAL” are within 0.2 log units of each other in “soluble fraction (log2)” value: 0.0253 for the first, -0.0412 for the second.

“HMDAAANTLRILKALSESPMSADRLAELLMEEGSGRNPRTIRRYIRALREAGFGVEHREGRYVL” and “HMDAAEVEATARAMLRRSALNLLAQREQTAFELKQKLSRRFPEQAALLDEVIERLQEQGLQDDTR” are within 0.2 log units of each other in “soluble fraction (log2)” value: -0.483 for the first, -0.527 for the second.

Compared with “HMDAEEISILLEKAVLQLPEKQKMIFQLKYFEDLSYKDIQIITGGSIGGLKANYHHAVTKIEKLLS”, “HMDAEETLGARLRRLRQARGLSLAGLAQAAGLSKPSIWAWENGTTAPRRTSLLALARALDVPEQQLTGV” is higher in “soluble fraction (log2)” value: -0.892 for the first, -0.173 for the second.

“HMDAEKHIVTPEAGLRLDRALTDALPNLSRSRVKQLINEGLVTTENKTITAPSYRVKYGDSFEISIPPPT” and “HMDAIIVPSVLKMKPFEAEEKLSALGLRMKINDTVYIDNMKPGVIVEQSPTAEEDVKTDRVIYVIVNA” are within 0.2 log units of each other in “soluble fraction (log2)” value: -0.134 for the first, -0.139 for the second.

Going from “HMDAKQLQSLKNNNEQLAGFIVRLTNFYEGLSPDIDAELSKLRSHLSGKVDYTLATVSINKINQLFMLEP” to “HMDALIWYVSRGQQKFGPFNYFGVLKALQDKSVFEFDYVWKEGTENWVRLAEHELFSQEKVRELLA”, the “soluble fraction (log2)” value rises from -1.75 to -0.679.

First: HMDAMLGEALRLIRVYHDLKQKQAAERLEVSTSYLSEIERGLKTPTLDIIQRYATVFDMPVSSIMFFSENL
Second: HMDAMLSEQLREKRGELLIEVDAIAGNALRWATLSAEQQDAWAVYRQALLDVPQQAGFPNDVVWPINPN
The “soluble fraction (log2)” value of the first is lower: -1.19 for the first, -0.982 for the second.

“HMDAPKPDIGMSTDQIRSSLGQPGSQTRLETGGGRIYELWIYLYPDGKELQIYFDNAKVVKMEALS” and “HMDAPLIIAETRVDVPDATVSDAVMMLDLRNTNALLFKNSGSGVLNMVYRRGDGTIGWGEPQ” are within 0.2 log units of each other in “soluble fraction (log2)” value: -0.419 for the first, -0.543 for the second.

Going from “HMDASKVKIEDLGLSTRTENALVAASIRTAGGLARKSEMDLLSTDGLGEKGITEIKKALSDLGLELK” to “HMDAVSTMIENLRVKTGKSLADWVGLAKGSGADKHGAMVGWLKSEHGLTHGYANLIAHETFRSAA”, the “soluble fraction (log2)” value falls from 0.246 to 0.0144.

First: HMDAVTPVLSRIRDARFKRMVLPGDEIEISVTLIDTIGKFFNLSGQIRNKDKISLTVNFALALV
Second: HMDDADPYEILGVERDAEDAEIKRAYHDLIRENHPDRLMAEGLPQEMIDVANEKVAFINDAYDRIEKLRGM
The “soluble fraction (log2)” value of the first is higher: 0.0905 for the first, -0.89 for the second.

Compared with “HMDDENKIEVMINEEKVQLTGKDKYVFVDIFNYIDMDLTRIHGNLVLKLNGENASHNSLLKSGDKIEARWE”, “HMDDERDRLVQQAMEGLSPALREILLLAYFQRMPYNQIAESLRIPLGTVKSRLHAAVAAFAKRWQELNRS” is higher in “soluble fraction (log2)” value: -1.92 for the first, -0.475 for the second.

Compared with “HMDDFNLSPREKDVLGHLVKGNSYKMIADELQIGYDTVHSHIKKIYKKLHVNSMSEAVAKALKNKL”, “HMDDGARQLVDQLNRLIANPAVSARIIHGYLILEGRVESEWEKTRTLLLAQVAGLPVIDLITVS” is lower in “soluble fraction (log2)” value: -0.26 for the first, -2.12 for the second.

“HMDDGLTRLTPRENEVLELMAQGRSNTAIAERLVLSYGAVEKNVSSIFTKLDLPLDAGDHRRVLAVLRRLN” and “HMDDGNHTEYIVLEKAKFYDEAGEYEEGRDLVLSFDKYQDNWKLVYTLGVFNKKLNNLEEARKYYKQALE” are within 0.2 log units of each other in “soluble fraction (log2)” value: -0.677 for the first, -0.846 for the second.

“HMDDHKQHLIDFYHSRKRMPTYTEMMALFGYKSKNAVARLVEKMIDAGIVTKDKLGKLLPTTLFDSVPL” and “HMDDHLRLSDNERISAMSALATHFTEGRLDTSEFDERTLAASQAKSRGDLRPLFDDLPGQLPAALSP” are within 0.2 log units of each other in “soluble fraction (log2)” value: -0.0996 for the first, -0.125 for the second.

First: HMDDKLKKLEEVFEMQEGTLTPDMRLDELEEWDSMTRLSLIVMMEDDYGKKVKRSEVMNYTTVQDIVDSME
Second: HMDDLSPEENKVIGAQVREELARRRLSRQHLADKAKISLSTLEKALTGTRPFTLASVVRIEEALQLQLRK
The “soluble fraction (log2)” value of the first is lower: -0.946 for the first, 0.344 for the second.

First: HMDDPEISQEQRQQLFRTAKEHFGASGNDVLKEILADHGRDSTVKMPVSVFAEIMGDLLKRALD
Second: HMDDPQAELLARAVRRVALAAAERTRRNEYGGVYLGLFRQFGISSYRRTPPARLHEALEWLERWRGDLM
The “soluble fraction (log2)” value of the first is higher: -0.121 for the first, -0.378 for the second.

First: HMDDTVILPIQINGKRRAEISVPKAMPASEVEKLALANEDVLRFLAGQPIKKLIVVPGRIINVV
Second: HMDDVGERIRKIREEKNLSLDEISKMTGFDVEFLAKIENKERQPQLGTVIKLSKALDSAFGRL
The “soluble fraction (log2)” value of the first is higher: at least 0.43 for the first, -0.0445 for the second.

Going from “HMDDVGYLRKRLQQALAQLSDDLRNTYTLFQIGKQSIKQIAAETGASESLVKVRIHRAKQKLQELLADLQ” to “HMDEDLQEALRKLNPIQANERKLLLKMLEQHRWNVSSVAKAFDVSRNTLYRRLHKLHIPLSNPSE”, the “soluble fraction (log2)” value rises from -0.054 to 0.172.

Going from “HMDEEAIELTQEVMKLPPKQREVILLYYYHGLTGKEIAKALGISGAAVSKRLKQAKNQLHFALK” to “HMDEEVLVVQEGGERLDVFVAANAEGITRSFVQNLIKKGDVTVDGAPRKANYRLRSGQVVRFSLPEP”, the “soluble fraction (log2)” value rises from 0.0819 to 0.293.

Going from “HMDEFEEGVITYFNSEKGFGFIRESKTKQSVFVHSKQLSSPVQLNDKVKFIVNKGLKGLEATEVSVI” to “HMDEFQLTPREQEILGLLVKGYTYKRIASELNLSYATVNRHVSNVYVKLRVHSVNEAVALAVRKGL”, the “soluble fraction (log2)” value falls from at least 0.43 to -0.543.

Going from “HMDEKLAHKLVSDFRQAAASLERFPFRNPVLRSEVFTVEKYRKLVFDKYHILLYQVKDQVVYVEYVIDGRQ” to “HMDEKVTIPSVSGLLLSEAKTKLVDAGLTVETVYDDESKEAKDTVLSQSPLQYGKVDKGTVVTLTVSSGKG”, the “soluble fraction (log2)” value falls from at least 0.43 to 0.417.

Compared with “HMDELPKDILRSFGLPDKPWAMELLRNLRRDGFALDGETARAYAEMAAMKPPRTDARQWMTAADVAYRRG”, “HMDEMPVEFVKISIKAGHPWENRKIKDLASLPDLLLVLILRGEERIIPNGNTVVLAGDKIVLSALSPE” is lower in “soluble fraction (log2)” value: 0.105 for the first, -1.94 for the second.

First: HMDENILKTRIEDLDLSVRTIKALTGASIRTVSGLARKKESDLLEISGLGDKGIQEIKRALGSLGITL
Second: HMDENTEQESQTVVVPDVTGKSLSEAASILREAGLDYLAEQTGTVVTKQMPLPDAEVLINTTVLLYTDSE
The “soluble fraction (log2)” value of the first is higher: -0.0429 for the first, -0.456 for the second.

Compared with “HMDEPSITYGKVKVQTSLNVRQGPGTQYARIGSLGPNVRIQILGQEGQWYKIKYGNLQGYVHSDYVELEK”, “HMDEQKNREIALIENIQREDLNPYEKALGIRNLMDKYGLTQEEVSKRIGKSRSAVSNTVRILNLAPDVL” is higher in “soluble fraction (log2)” value: -0.376 for the first, -0.0309 for the second.

Compared with “HMDEQLAWLYRKINAFSEIDKALILLYLEDKKYDEIAETLGISSVNARVKMNRIKKRLKEMINDR”, “HMDEQVETLKNLISELPKEQLEVLVMRHYEDLSFKEISEKTGVSINTALGRMRYALINIRKLMKENN” is higher in “soluble fraction (log2)” value: -1.02 for the first, -0.488 for the second.

“HMDESLIEEAKAMILQMKIEGSVRVRSNGLLEFRNPLFGSVYGRSVEELQEKLNKKVREQKSRI” and “HMDEVPMPPEYQYLRVGSRVHHATFGWGKVTRLSQPWPQTRAEVFFENIGPKKLVLAHAHLTMD” are within 0.2 log units of each other in “soluble fraction (log2)” value: 0.194 for the first, 0.113 for the second.
